Experiment [1] has as its target suPAR in human plasma from FSGS patients (human) (UniProt Q03405). The experiment is described as follows: immunodepletion of FSGS plasma, remaining suPAR measured by R&D ELISA. For orientation: An ELISA detects its analyte on a solid surface through an enzyme-linked reagent.
The target of another experiment is protein G-agarose beads (UniProt P06654). The experiment is described as follows: mock depletion of FSGS plasma with protein G-agarose beads only, R&D ELISA.

Sequence of suPAR in human plasma from FSGS patients (Q03405 23-305 limits assumed): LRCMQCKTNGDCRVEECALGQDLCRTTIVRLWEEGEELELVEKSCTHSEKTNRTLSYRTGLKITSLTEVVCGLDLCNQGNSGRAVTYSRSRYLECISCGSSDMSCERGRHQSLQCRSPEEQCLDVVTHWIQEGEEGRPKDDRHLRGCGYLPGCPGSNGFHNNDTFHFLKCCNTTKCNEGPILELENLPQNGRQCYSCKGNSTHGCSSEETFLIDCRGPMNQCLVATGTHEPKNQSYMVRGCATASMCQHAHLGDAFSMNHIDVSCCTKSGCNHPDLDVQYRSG
Sequence of suPAR in human plasma from FSGS patients (human) (Q03405 23-305 limits assumed): as above

Take “mouse monoclonal anti-suPAR antibody ATN615”: in experiment [1], the percent of suPAR removed from human plasma was above 99%.
“suPAR in human plasma from FSGS patients (from UniProt Q03405 23-305) (receptor)” displayed a percent lowering of suPAR level in plasma in the experiment with protein G-agarose beads of 20 to 50%.

The values are drawn from patent publication US20160169910A1.
